Test results published in article PMC5498717.

Biological target: GST
Assay: cross-linking; BS3 0.25 mM, 15 min at RT in PBS with 1 mM DTT, proteins mixed about 1:1; SDS-PAGE, anti-His and anti-GST Western blots

Sequence of GST (natural protein) (P08515 2-218): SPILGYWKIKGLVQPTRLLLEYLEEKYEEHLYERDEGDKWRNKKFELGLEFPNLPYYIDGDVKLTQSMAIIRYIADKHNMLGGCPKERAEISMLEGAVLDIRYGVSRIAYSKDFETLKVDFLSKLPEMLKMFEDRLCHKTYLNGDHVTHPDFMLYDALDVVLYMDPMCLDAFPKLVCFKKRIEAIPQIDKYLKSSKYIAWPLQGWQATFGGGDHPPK

- stoichiometry N: 2
Substance: GST (natural protein)
